A word on the Kd: it is a measure of binding affinity in units of concentration.

The target in the experiment is dynein light chain LC8 (UniProt P63167 1-89). In words: ITC.
Sequence of dynein light chain LC8 (P63167 whole entry): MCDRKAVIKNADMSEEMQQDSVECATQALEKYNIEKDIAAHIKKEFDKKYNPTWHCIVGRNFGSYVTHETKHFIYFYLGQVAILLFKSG

B1: GLCCI1 peptide (peptide)
peptide: SSSTRSIDTQTPSV
Molecule B1 displayed a Kd of 4900 nM.

B2: MAST1 peptide (peptide)
peptide: YGCTRHQSVQTEDG
Turning to B2, the Kd was found to be 1700 nM.

B3: ZFPM1 peptide (peptide)
peptide: PAPPSYSDKGVQTPSK
In turn, B3 had a Kd of 1600 nM.

B4: ICE1 peptide (peptide)
peptide: EKELRHIGTQISSD
In turn, B4 yielded a Kd of 3600 nM.

B5: bassoon (BSN) peptide, modified version with the TQT motif near the C-terminus (peptide)
peptide: PRATAEFSTQTPSP
Turning to B5, the affinity, expressed as Kd, was 6300 nM.

B6: RavL peptide (peptide)
chain: SEIHGISRMTQTPQ
Molecule B6 gave a Kd of 8000 nM.

B7: SLC9A2 peptide (peptide)
peptide: DDHSREKGTQTSGD
For the molecule B7, binding was characterised by a dissociation constant (Kd) of 2200 nM. Compared with the last molecule, the Kd is about 3.6-fold lower.

B8: CCL2 peptide (peptide)
peptide: YDSMDHLDKQTQTPKT
Consider B8, for which binding was characterised by a dissociation constant (Kd) of 4700 nM. This Kd is about 2.1-fold higher than that of the molecule before.

B9: MUC3A peptide (peptide)
peptide: PVLTSATGTQTSPA
Consider B9, for which the Kd turned out to be 4500 nM.

B10: CIZ1 peptide (peptide)
peptide: ARAGRSVSTQTGSM
Take B10: the Kd stood at 800 nM.

B11: SPAG5 peptide (peptide)
peptide: HPETQDSSTQTDTS
In the case of B11, the Kd was determined as 1300 nM.

B12: BCL2L11 peptide (peptide)
peptide: APMSCDKSTQTPSP
B12 yielded an equilibrium dissociation constant (Kd) of 200 nM. This Kd lies about 6.5-fold lower than the previous one.

B13: CAPRIN2 peptide (peptide)
peptide: NQSFTTASTQTPPQ
Consider B13, for which binding was characterised by a dissociation constant (Kd) of 2600 nM.

B14: CCL7 peptide (peptide)
peptide: QDFMKHLDKKTQTPKL
B14 yielded a Kd of 2800 nM. The Kd values of the last two molecules are within 1.5-fold of each other.

The values above are taken from PMC6607443 (2019).
